T1: LIN7B, Q9HAP6
T1 sequence (Q9HAP6 88-185, limits assumed, looked up): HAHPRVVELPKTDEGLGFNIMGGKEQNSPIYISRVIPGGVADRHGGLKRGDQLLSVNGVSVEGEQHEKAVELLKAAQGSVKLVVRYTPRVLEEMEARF

T2: CARD11, Q9BXL7
T2 sequence (Q9BXL7 662-765, limits assumed, looked up): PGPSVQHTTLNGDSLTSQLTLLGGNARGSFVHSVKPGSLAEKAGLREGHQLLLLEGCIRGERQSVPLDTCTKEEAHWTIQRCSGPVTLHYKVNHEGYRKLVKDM

T3: NHERF3_1, Q5T2W1
T3 sequence (Q5T2W1 4-100, limits assumed, looked up): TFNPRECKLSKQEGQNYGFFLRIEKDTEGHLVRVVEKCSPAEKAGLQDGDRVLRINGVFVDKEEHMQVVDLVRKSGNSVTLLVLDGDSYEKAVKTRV

T4: LRRC7, Q96NW7
T4 sequence (Q96NW7 1440-1537, limits assumed, looked up): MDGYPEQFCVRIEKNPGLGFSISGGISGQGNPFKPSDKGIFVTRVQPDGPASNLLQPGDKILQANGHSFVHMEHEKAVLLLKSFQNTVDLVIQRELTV

T5: HTRA3, P83110
T5 sequence (P83110 354-453, limits assumed, looked up): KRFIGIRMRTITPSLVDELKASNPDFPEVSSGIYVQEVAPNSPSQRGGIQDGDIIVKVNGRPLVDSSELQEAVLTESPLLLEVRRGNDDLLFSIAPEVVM

T6: PCLO, Q9Y6V0
T6 sequence (Q9Y6V0 4491-4600, limits assumed, looked up): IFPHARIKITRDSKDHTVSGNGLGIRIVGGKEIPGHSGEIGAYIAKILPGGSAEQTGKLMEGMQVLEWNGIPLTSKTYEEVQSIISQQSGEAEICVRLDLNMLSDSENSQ

T7: SNTG1, Q9NSN8
T7 sequence (Q9NSN8 52-150, limits assumed, looked up): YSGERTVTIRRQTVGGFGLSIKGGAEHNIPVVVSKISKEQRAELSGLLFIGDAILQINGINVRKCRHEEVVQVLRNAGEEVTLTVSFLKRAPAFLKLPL

T8: NHERF3_3, Q5T2W1
T8 sequence (Q5T2W1 238-333, limits assumed, looked up): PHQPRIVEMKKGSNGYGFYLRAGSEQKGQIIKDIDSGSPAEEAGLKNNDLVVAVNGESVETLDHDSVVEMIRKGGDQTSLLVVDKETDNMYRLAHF

T9: LNX2_2, Q8N448
T9 sequence (Q8N448 334-432, limits assumed, looked up): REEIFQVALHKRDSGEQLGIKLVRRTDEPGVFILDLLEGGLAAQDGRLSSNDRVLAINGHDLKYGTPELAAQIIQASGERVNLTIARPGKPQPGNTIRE


Assays:
Assay in all cases: holdup assay
Set-up in all cases: key: below the threshold = too weak to quantify, mostly under pKd 3.1 to 4
Settings in all cases: plain residues with an end cap or a label only (N-terminal biotin on a linker: ado-ado)
PICK1, Q9NRD5 = biological target: PICK1, Q9NRD5
Sequence of PICK1, Q9NRD5 (Q9NRD5 17-115): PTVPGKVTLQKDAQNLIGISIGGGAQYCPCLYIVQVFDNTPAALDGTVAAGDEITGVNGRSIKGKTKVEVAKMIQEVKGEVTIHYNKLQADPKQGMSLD

GOPC, Q9HD26 = biological target: GOPC, Q9HD26
LIN7B, Q9HAP6 = biological target: T1, LIN7B, Q9HAP6
TJP2_1, Q9UDY2 = biological target: TJP2_1, Q9UDY2
Sequence of TJP2_1, Q9UDY2 (Q9UDY2 24-128): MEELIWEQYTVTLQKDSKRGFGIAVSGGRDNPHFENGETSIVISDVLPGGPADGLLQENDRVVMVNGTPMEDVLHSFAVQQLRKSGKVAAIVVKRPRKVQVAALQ

NHERF4_2, Q86UT5 = biological target: NHERF4_2, Q86UT5
Sequence of NHERF4_2, Q86UT5 (Q86UT5 220-308): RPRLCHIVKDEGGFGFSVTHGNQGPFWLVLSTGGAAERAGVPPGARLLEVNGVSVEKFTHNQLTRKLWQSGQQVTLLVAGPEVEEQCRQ

CARD11, Q9BXL7 = biological target: T2, CARD11, Q9BXL7
IL16_3, Q14005 = biological target: IL16_3, Q14005
Sequence of IL16_3, Q14005 (Q14005 1107-1207): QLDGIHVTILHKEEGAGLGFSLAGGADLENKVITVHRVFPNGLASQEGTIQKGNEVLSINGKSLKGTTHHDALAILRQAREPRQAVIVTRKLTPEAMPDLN

DLG4_3, P78352 = biological target: DLG4_3, P78352
Sequence of DLG4_3, P78352 (P78352 306-403): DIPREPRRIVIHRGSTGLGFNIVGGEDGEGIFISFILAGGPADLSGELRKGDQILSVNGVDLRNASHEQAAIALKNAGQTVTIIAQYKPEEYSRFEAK

SCRIB_2, Q14160 = biological target: SCRIB_2, Q14160
Sequence of SCRIB_2, Q14160 (Q14160 857-960): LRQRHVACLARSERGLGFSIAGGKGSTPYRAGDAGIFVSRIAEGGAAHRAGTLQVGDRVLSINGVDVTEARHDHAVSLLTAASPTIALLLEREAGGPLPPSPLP

SCRIB_3, Q14160 = biological target: SCRIB_3, Q14160
Sequence of SCRIB_3, Q14160 (Q14160 999-1103): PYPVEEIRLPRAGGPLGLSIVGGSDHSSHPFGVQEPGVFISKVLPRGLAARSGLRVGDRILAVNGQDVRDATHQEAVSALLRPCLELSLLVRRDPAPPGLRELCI

NHERF3_1, Q5T2W1 = biological target: T3, NHERF3_1, Q5T2W1
NHERF4_1, Q86UT5-2 = biological target: NHERF4_1, Q86UT5-2
Sequence of NHERF4_1, Q86UT5-2 (Q86UT5 other isoform, or with tags, fused parts or gaps): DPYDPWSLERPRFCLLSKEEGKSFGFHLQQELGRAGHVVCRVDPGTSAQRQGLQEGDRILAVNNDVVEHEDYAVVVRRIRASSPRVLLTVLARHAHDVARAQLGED

LAP2, Q96RT1 = biological target: LAP2, Q96RT1
Sequence of LAP2, Q96RT1 (Q96RT1 other isoform, or with tags, fused parts or gaps): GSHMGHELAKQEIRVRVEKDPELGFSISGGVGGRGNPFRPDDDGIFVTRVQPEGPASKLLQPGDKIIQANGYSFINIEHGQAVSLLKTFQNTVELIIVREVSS

SNX27, Q96L92 = biological target: SNX27, Q96L92
LRRC7, Q96NW7 = biological target: T4, LRRC7, Q96NW7
HTRA3, P83110 = biological target: T5, HTRA3, P83110
GRID2IP_2, A4D2P6 = biological target: GRID2IP_2, A4D2P6
Sequence of GRID2IP_2, A4D2P6 (A4D2P6 272-370): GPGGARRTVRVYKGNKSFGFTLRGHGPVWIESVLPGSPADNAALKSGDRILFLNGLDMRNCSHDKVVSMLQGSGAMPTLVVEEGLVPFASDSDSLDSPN

DLG5_1, Q8TDM6 = biological target: DLG5_1, Q8TDM6
Sequence of DLG5_1, Q8TDM6 (Q8TDM6 617-713): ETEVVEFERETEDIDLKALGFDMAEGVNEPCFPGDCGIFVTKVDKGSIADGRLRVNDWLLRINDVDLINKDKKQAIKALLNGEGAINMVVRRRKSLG

PCLO, Q9Y6V0 = biological target: T6, PCLO, Q9Y6V0
MAGI2_4, Q86UL8 = biological target: MAGI2_4, Q86UL8
Sequence of MAGI2_4, Q86UL8 (Q86UL8 772-865): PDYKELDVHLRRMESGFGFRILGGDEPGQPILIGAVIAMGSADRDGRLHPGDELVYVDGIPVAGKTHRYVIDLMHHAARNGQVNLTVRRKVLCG

SNTG1, Q9NSN8 = biological target: T7, SNTG1, Q9NSN8
Inadl_10, Q8NI35 = biological target: Inadl_10, Q8NI35
Sequence of Inadl_10, Q8NI35 (Q8NI35 1673-1763): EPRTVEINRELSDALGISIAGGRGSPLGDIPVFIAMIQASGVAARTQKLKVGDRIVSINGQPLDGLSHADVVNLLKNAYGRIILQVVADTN

Inadl_5, Q8NI35 = biological target: Inadl_5, Q8NI35
Sequence of Inadl_5, Q8NI35 (Q8NI35 673-780): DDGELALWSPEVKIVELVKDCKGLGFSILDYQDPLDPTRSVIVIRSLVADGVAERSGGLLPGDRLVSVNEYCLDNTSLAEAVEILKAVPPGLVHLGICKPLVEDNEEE

GRIP2_7, Q9C0E4 = biological target: GRIP2_7, Q9C0E4
Sequence of GRIP2_7, Q9C0E4 (Q9C0E4 934-1023): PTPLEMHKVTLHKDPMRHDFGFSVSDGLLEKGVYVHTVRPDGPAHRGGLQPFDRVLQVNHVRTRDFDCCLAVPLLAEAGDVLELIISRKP

GRIP2_5, Q9C0E4 = biological target: GRIP2_5, Q9C0E4
Sequence of GRIP2_5, Q9C0E4 (Q9C0E4 544-642): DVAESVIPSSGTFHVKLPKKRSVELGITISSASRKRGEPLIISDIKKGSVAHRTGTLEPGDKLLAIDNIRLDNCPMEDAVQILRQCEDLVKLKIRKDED

NHERF3_3, Q5T2W1 = biological target: T8, NHERF3_3, Q5T2W1
LNX2_2, Q8N448 = biological target: T9, LNX2_2, Q8N448
LDB3, O75112 = biological target: LDB3, O75112
Sequence of LDB3, O75112 (O75112 1-94): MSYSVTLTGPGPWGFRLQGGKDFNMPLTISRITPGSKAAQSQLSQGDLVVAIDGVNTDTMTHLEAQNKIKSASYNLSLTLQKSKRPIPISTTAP

pKd (PICK1, Q9NRD5) | pKd (GOPC, Q9HD26) | pKd (LIN7B, Q9HAP6) | pKd (TJP2_1, Q9UDY2) | pKd (NHERF4_2, Q86UT5) | pKd (CARD11, Q9BXL7) | pKd (IL16_3, Q14005) | pKd (DLG4_3, P78352) | pKd (SCRIB_2, Q14160) | pKd (SCRIB_3, Q14160) | pKd (NHERF3_1, Q5T2W1) | pKd (NHERF4_1, Q86UT5-2) | pKd (LAP2, Q96RT1) | pKd (SNX27, Q96L92) | pKd (LRRC7, Q96NW7) | pKd (HTRA3, P83110) | pKd (GRID2IP_2, A4D2P6) | pKd (DLG5_1, Q8TDM6) | pKd (PCLO, Q9Y6V0) | pKd (MAGI2_4, Q86UL8) | Binder | other results
below the threshold | 3.91 | below the threshold | 4.82 | below the threshold | below the threshold | below the threshold | 4.4 | 4.1 | 4.33 | 5.03 | 3.7 | below the threshold | 3.85 | below the threshold | below the threshold | 3.96 | below the threshold | below the threshold | 3.76 | RFQQRMQTHV [KIRREL1, Q96J84] | pKd (SNTG1, Q9NSN8): below the threshold; pKd (Inadl_10, Q8NI35): below the threshold; pKd (Inadl_5, Q8NI35): 3.6; pKd (GRIP2_7, Q9C0E4): 3.52; pKd (GRIP2_5, Q9C0E4): below the threshold; pKd (NHERF3_3, Q5T2W1): below the threshold; pKd (LNX2_2, Q8N448): 4.08; pKd (LDB3, O75112): below the threshold
4.26 | below the threshold | below the threshold | 4.16 | 3.59 | below the threshold | below the threshold | below the threshold | below the threshold | below the threshold | 4.26 | 3.81 | below the threshold | 3.83 | below the threshold | 4.19 | below the threshold | below the threshold | below the threshold | 3.68 | QSYPSKHDYV [CLDN18, P56856] | pKd (SNTG1, Q9NSN8): below the threshold; pKd (Inadl_10, Q8NI35): below the threshold; pKd (Inadl_5, Q8NI35): 3.57; pKd (GRIP2_7, Q9C0E4): below the threshold; pKd (GRIP2_5, Q9C0E4): below the threshold; pKd (NHERF3_3, Q5T2W1): below the threshold; pKd (LNX2_2, Q8N448): 4.17; pKd (LDB3, O75112): below the threshold
below the threshold | 3.56 | below the threshold | below the threshold | below the threshold | below the threshold | below the threshold | below the threshold | 4.32 | 4.35 | 4.57 | 3.53 | 4.15 | 4.73 | below the threshold | 3.48 | 4.15 | 3.63 | below the threshold | 3.95 | REEPDHSTEV [CCRL2, O00421] | pKd (SNTG1, Q9NSN8): 4.36; pKd (Inadl_10, Q8NI35): below the threshold; pKd (Inadl_5, Q8NI35): below the threshold; pKd (GRIP2_7, Q9C0E4): below the threshold; pKd (GRIP2_5, Q9C0E4): below the threshold; pKd (NHERF3_3, Q5T2W1): below the threshold; pKd (LNX2_2, Q8N448): 4.09; pKd (LDB3, O75112): below the threshold
